Reference: patent US20040126856A1, “Factor ixa: factor Vllla interaction and methods therefor” (priority 2004, published 2004)

Experiments:
[1] = target: T1, A2 subunit of factor VIIIa (Homo sapiens, UniProt P00451); assay: Apparent KdA2 of dEGR-IXa proteins: inhibition of IXaWT:A2 subunit interaction in the tenase system; assay type: biochemical; settings: for Kd: values from FIG. 3, read-out: App KdA2; for ΔG°A2: ΔG° = RTlnKd, 298 Kelvin
T1 construct: cleaved by thrombin at R372-S373, R740-S741, and R1689-S1690 to yield factor VIIIa
T1 sequence (P00451 392-759): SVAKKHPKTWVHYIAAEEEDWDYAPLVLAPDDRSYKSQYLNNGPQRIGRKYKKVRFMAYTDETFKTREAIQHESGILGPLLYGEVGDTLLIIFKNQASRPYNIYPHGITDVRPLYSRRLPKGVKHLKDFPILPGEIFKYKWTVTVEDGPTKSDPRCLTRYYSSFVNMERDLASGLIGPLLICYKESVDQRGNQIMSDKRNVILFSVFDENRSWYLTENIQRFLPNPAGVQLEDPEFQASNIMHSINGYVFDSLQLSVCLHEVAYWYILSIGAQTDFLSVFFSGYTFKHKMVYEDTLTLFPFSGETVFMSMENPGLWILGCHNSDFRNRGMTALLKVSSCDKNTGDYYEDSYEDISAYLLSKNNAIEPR
Description: Determination of KdA2 of Binding of dEGR-IXa Proteins to A2 Subunit.
The apparent Kd (termed KdA2) for binding of each dEGR-IXa protein to the A2 subunit was determined by its ability to inhibit factor IXaWT:A2 subunit interaction in the tenase complex as described earlier for intact factor VIIIa (Mather and Bajaj, 1999; Mather et al., 1997). The reactions were carried out as described for the EC50 experiments above except dEGR-IXa and IXaWT were mixed prior to addition of the A2 subunit; this ensured steady state conditions. Mixtures contained 100 nM IXaWT, 30 nM A2 subunit, 250 nM factor X, 25 μM PL, and various concentrations of dEGR-IXa proteins in TBS/BSA, pH 7.5 containing 5 mM CaCl2. The IC50 (concentration of inhibitor required for 50% inhibition) was determined by fitting the data to the IC50 four-parameter logistic equation of Halfman (1981) given below (Eq. 2). [formula]
where y is the rate of Xa formation in the presence of a given concentration of dEGR-IXa protein represented by x, a is the maximum rate of factor Xa formation in the absence of dEGR-IXa, and s is the slope factor. Each point was weighted equally, and the data were fitted to Equation 2 using the nonlinear regression analysis program GraFit from Erithacus Software. […] To obtain KdA2 values for the interaction of dEGR-IXa proteins with A2, we used the following equation (Eq. 3) as described by Cheng and Prusoff (1973) and further elaborated by Craig (1993). [formula]
where A is the concentration of IXaWT, and EC50 is the concentration of factor IXaWT that gives a 50% maximum response in the absence of the competitor at a specified concentration of factor X used in the experiment.

[2] = target: T1, A2 subunit of factor VIIIa; assay: Fluorescence quenching of the dansyl moiety in dEGR-IXa by the A2 subunit; assay type: binding; settings: for Change in dansyl fluorescence emission intensity on titration with A2 subunit: 100 μM PL (FIG. 4)
Description: Fluorescence Quenching of the Dansyl Moiety in dEGR-IXa by the A2 Subunit.
The effect of the A2 subunit on the emission intensity of the dansyl moiety in each dEGR-IXa protein was determined using the SLM AB2 spectrofluorometer. Each reaction mixture contained 220 nM dEGR-IXa in 20 mM Hepes, pH 7.2, 100 mM NaCl, 5 mM CaCl2, 0.01% Tween, 200 μg/ml BSA and 100 μM PL vesicles. The excitation wavelength was 340 nm (slit width, 8 nm) and the emission wavelength was 540 nm (slit width; 8 nm). First, blank values (in triplicate) were obtained for the buffer containing PL. dEGR-IXa was then added and the emission intensity in the absence of the A2 subunit was recorded. Each reaction mixture was subsequently titrated with the A2 subunit and the emission readings (in triplicate) were obtained at each time point. The fluorescence emission intensity at each point was corrected for increases in the reaction volume prior to analysis of the data. […] Data are presented as F/F0 where F0 is the emission intensity in the absence of A2 subunit and F is the intensity at a given A2 subunit concentration.

A2 558-565 peptide = target: T2, A2 558-565 peptide (Homo sapiens, UniProt P00451); assay: Apparent Kdpeptide of binding of each factor IXa to the A2 558-565 peptide; assay type: biochemical; settings: for Kd: values from FIG. 5, A2 558-565 peptide, read-out: App Kdpeptide; for ΔG°peptide: ΔG° = RTlnKd, 298 Kelvin
T2 construct: made in house; host or cells: chemical synthesis (synthetic peptide)
Description: Determination of the Apparent Kdpeptide of Binding of Each Factor IXa to the A2 558-565 Peptide.
The apparent Kd (termed Kdpeptide) for binding of each factor IXa to the A2 558-565 peptide was determined by its ability to inhibit the respective IXa:A2 subunit interaction as measured by reduction in the rate of factor X activation in the tenase system. The reaction mixtures for both IXaWT and IXaPCEGF1 contained 100 nM factor IXa, 30 nM A2 subunit, 250 nM factor X, and 25 μM PL in TBS/BSA, pH 7.5 with 5 mM CaCl2. The reaction mixture for IXaR333Q contained 300 nM factor IXa instead of 100 nM used for IXaWT or IXaPCEGF1; concentrations of other components were the same. The amount of factor Xa generated was determined by hydrolysis of S-2222. The IC50 values were obtained using Eq. 2. Here, y is the rate of factor Xa formation in the presence of a given concentration of the A2 558-565 peptide represented by x, and a is the maximum rate of factor Xa formation in the absence of the A2 peptide. Eq. 3 was then used to obtain the apparent Kdpeptide values. In this context, A is the concentration of IXaWT, IXaPCEGF1, or IXaR333Q, and EC50 is the apparent KdA2 for the respective IXa:A2 subunit interaction.

For “IXaR333Q: activated factor IX point mutant in which Arg333 is replaced by Gln”, the “Change in ΔG°A2 between the mutant and WT” value [1] was 1.72 kcal/mol, the “Fold-change in apparent KdA2 (mutant/WT)” value [1] was roughly 15 and the Kd [1] was 1850 ± 82 nM. For the same substance, the “ΔG°A2” value [1] was 7.82 kcal/mol, the “Change in dansyl fluorescence emission intensity on titration with A2 subunit” value ([2]; 220 nM dEGR-IXa protein) was “little if any change” and the “Change in ΔG°peptide between the mutant and WT” value (A2 558-565 peptide) was 1.62 kcal/mol. The “Fold-change in apparent Kdpeptide (mutant/WT)” value (A2 558-565 peptide) was roughly 15, the Kd (A2 558-565 peptide) was 62 ± 9 µM and the “ΔG°peptide” value (A2 558-565 peptide) was 5.74 kcal/mol.

With “IXaWT: activated recombinant wild-type factor IX (IXWT)” the Kd [1] was 100 ± 11 nM, the “ΔG°A2” value [1] was 9.54 kcal/mol and the “Change in dansyl fluorescence emission intensity on titration with A2 subunit” value ([2]; 220 nM dEGR-IXa protein) was “dose-dependent decrease”. For the same substance, the “Plateau value for F/F0” value ([2]; bimolecular association model fit, 220 nM dEGR-IXa protein, 100 μM PL) was 0.59±0.05, the Kd ([2]; bimolecular association model fit, read-out: Apparent KdA2 from fluorescence quenching) was roughly 100 nM and the Kd (A2 558-565 peptide) was 4 ± 1 µM. The “ΔG°peptide” value (A2 558-565 peptide) was 7.36 kcal/mol.
